{
  "source": "paper PMC7948495",
  "about": "“The flexible N-terminus of BchL autoinhibits activity through interaction with its [4Fe-4S] cluster and released upon ATP binding” (The Journal of Biological Chemistry, 2020)",
  "proteins": {"B1": {"name": "BchL (L-protein of dark-operative protochlorophyllide oxidoreductase, DPOR) from Rhodobacter sphaeroides (enzyme, UniProt Q9RFD6 1-297, looked up)", "chain": "MSPKDLTIPTGADGEGSVQVHLDEADKITGAKVFAVYGKGGIGKSTTSSNLSAAFSILGKRVLQIGCDPKHDSTFTLTGSLVPTVIDVLKDVDFHPEELRPEDFVFEGFNGVMCVEAGGPPAGTGCGGYVVGQTVKLLKQHHLLDDTDVVIFDVLGDVVCGGFAAPLQHADQAVVVTANDFDSIYAMNRIIAAVQAKSKNYKVRLAGCVANRSRATDEVDRFCKETNFRRLAHMPDLDAIRRSRLKKKTLFEMDEDQDVLAARAEYIRLAESLWRGLDPIDPHSLPDRDIFELLGFD", "notes": "BchL, Rhodobacter sphaeroides; coding region PCR-amplified from genomic DNA and cloned into pRSF-Duet 1 or pET-Duet 1; a TEV protease site follows the His tag; Homodimer with one [4Fe-4S] cluster at the dimer interface, ligated by two cysteines from each subunit; also called WT BchL"}},
  "biological_target": "the molecule itself",
  "assay": "crystal structure; nucleotide-free BchL crystallised anaerobically at 15 °C by vapor diffusion; 100 μM dimeric BchL in 100 mM Hepes pH 7.5, 150 mM NaCl, 10% glycerol, 1.7 mM dithionite; well 0.6 M NaCl, 0.1 M MES:NaOH pH 6.5, 20% PEG 4000; 2.6 Å",
  "data": [
    {"protein": "B1", "values": [
      {"measurement": "binding result", "value": "binds"}
    ]}
  ]
}
